In US20210388087A1 (Chugai, published 2021):
Changes are numbered by the printed parent chain. Numbers in names are those of the source.

T1: Human CD3eg linker (human)
T1 construct: single-chain construct; also called recombinant human CD3
T1 chain: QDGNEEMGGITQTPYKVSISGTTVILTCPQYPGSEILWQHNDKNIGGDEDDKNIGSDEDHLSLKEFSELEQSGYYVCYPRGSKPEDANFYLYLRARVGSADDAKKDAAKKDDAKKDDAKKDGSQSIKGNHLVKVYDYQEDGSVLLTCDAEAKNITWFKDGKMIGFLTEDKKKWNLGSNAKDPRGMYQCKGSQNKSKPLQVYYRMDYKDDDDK

B1: dBBDu183H P61V/dBBDu072L (antibody, name in Kabat numbering, V domains shown)
VH: QVQLVESGGGLVQPGRSLRLSCAASGFTFSNAWMHWVRQAPGKGLEWVAQIKDKGNAYAAYYAVSVKGRFTISRDDSKNSIYLQMNSLKTEDTAVYYCHYVHYASASTVLPAFGVDAWGQGTTVTVSS
VL: DIVMTQSPLSLPVTPGEPASISCQASQELVHMNRNTYLHWYQQKPGQAPRLLIYKVSNRFPGVPDRFSGSGSGTDFTLKISRVEAEDVGVYYCAQGTSVPFTFGQGTKLEIK
B2: dBBDu183H A100fG/dBBDu072L (antibody, name in Kabat numbering, V domains shown)
VH: B1 VH with V64P, A112G
VL: B1 VL
B3: dBBDu183H A100fE/dBBDu072L (antibody, name in Kabat numbering, V domains shown)
VH: B1 VH with V64P, A112E
VL: B1 VL
B4: dBBDu183H A98V/dBBDu072L (antibody, name in Kabat numbering, V domains shown)
VH: B1 VH with V64P, A104V
VL: B1 VL
B5: dBBDu183H A98H/dBBDu072L (antibody, name in Kabat numbering, V domains shown)
VH: B1 VH with V64P, A104H
VL: B1 VL
B6: dBBDu183H A100N/dBBDu072L (antibody, name in Kabat numbering, V domains shown)
VH: B1 VH with V64P, A106N
VL: B1 VL
B7: dBBDu183H A100E/dBBDu072L (antibody, name in Kabat numbering, V domains shown)
VH: B1 VH with V64P, A106E
VL: B1 VL
B8: dBBDu183H A100fD/dBBDu072L (antibody, name in Kabat numbering, V domains shown)
VH: B1 VH with V64P, A112D
VL: B1 VL
B9: dBBDu183H A100fF/dBBDu072L (antibody, name in Kabat numbering, V domains shown)
VH: B1 VH with V64P, A112F
VL: B1 VL
B10: dBBDu183H A100G/dBBDu072L (antibody, name in Kabat numbering, V domains shown)
VH: B1 VH with V64P, A106G
VL: B1 VL
B11: dBBDu183H A100fH/dBBDu072L (antibody, name in Kabat numbering, V domains shown)
VH: B1 VH with V64P, A112H
VL: B1 VL
B12: dBBDu183H A98D/dBBDu072L (antibody, name in Kabat numbering, V domains shown)
VH: B1 VH with V64P, A104D
VL: B1 VL
B13: dBBDu183H A100V/dBBDu072L (antibody, name in Kabat numbering, V domains shown)
VH: B1 VH with V64P, A106V
VL: B1 VL
B14: dBBDu183H A98Q/dBBDu072L (antibody, name in Kabat numbering, V domains shown)
VH: B1 VH with V64P, A104Q
VL: B1 VL
B15: dBBDu183H A100fK/dBBDu072L (antibody, name in Kabat numbering, V domains shown)
VH: B1 VH with V64P, A112K
VL: B1 VL
B16: dBBDu183H A98F/dBBDu072L (antibody, name in Kabat numbering, V domains shown)
VH: B1 VH with V64P, A104F
VL: B1 VL
B17: dBBDu183H A100Y/dBBDu072L (antibody, name in Kabat numbering, V domains shown)
VH: B1 VH with V64P, A106Y
VL: B1 VL
B18: dBBDu183H A100fT/dBBDu072L (antibody, name in Kabat numbering, V domains shown)
VH: B1 VH with V64P, A112T
VL: B1 VL
B19: dBBDu183H A100T/dBBDu072L (antibody, name in Kabat numbering, V domains shown)
VH: B1 VH with V64P, A106T
VL: B1 VL
B20: dBBDu183H A98E/dBBDu072L (antibody, name in Kabat numbering, V domains shown)
VH: B1 VH with V64P, A104E
VL: B1 VL
B21: dBBDu183H A100R/dBBDu072L (antibody, name in Kabat numbering, V domains shown)
VH: B1 VH with V64P, A106R
VL: B1 VL
B22: dBBDu183H A100fQ/dBBDu072L (antibody, name in Kabat numbering, V domains shown)
VH: B1 VH with V64P, A112Q
VL: B1 VL
B23: dBBDu183H A98Y/dBBDu072L (antibody, name in Kabat numbering, V domains shown)
VH: B1 VH with V64P, A104Y
VL: B1 VL
B24: dBBDu183H A100Q/dBBDu072L (antibody, name in Kabat numbering, V domains shown)
VH: B1 VH with V64P, A106Q
VL: B1 VL
B25: dBBDu183H A98K/dBBDu072L (antibody, name in Kabat numbering, V domains shown)
VH: B1 VH with V64P, A104K
VL: B1 VL
B26: dBBDu183H A100fS/dBBDu072L (antibody, name in Kabat numbering, V domains shown)
VH: B1 VH with V64P, A112S
VL: B1 VL
B27: dBBDu183H A100fV/dBBDu072L (antibody, name in Kabat numbering, V domains shown)
VH: B1 VH with V64P, A112V
VL: B1 VL
B28: dBBDu183H A100fN/dBBDu072L (antibody, name in Kabat numbering, V domains shown)
VH: B1 VH with V64P, A112N
VL: B1 VL
B29: dBBDu183H A100D/dBBDu072L (antibody, name in Kabat numbering, V domains shown)
VH: B1 VH with V64P, A106D
VL: B1 VL
B30: dBBDu183H A98T/dBBDu072L (antibody, name in Kabat numbering, V domains shown)
VH: B1 VH with V64P, A104T
VL: B1 VL
B31: dBBDu183H A100S/dBBDu072L (antibody, name in Kabat numbering, V domains shown)
VH: B1 VH with V64P, A106S
VL: B1 VL
B32: dBBDu183H A98S/dBBDu072L (antibody, name in Kabat numbering, V domains shown)
VH: B1 VH with V64P, A104S
VL: B1 VL
B33: dBBDu183H A100K/dBBDu072L (antibody, name in Kabat numbering, V domains shown)
VH: B1 VH with V64P, A106K
VL: B1 VL
B34: dBBDu183H A100fR/dBBDu072L (antibody, name in Kabat numbering, V domains shown)
VH: B1 VH with V64P, A112R
VL: B1 VL
B35: dBBDu183H A100H/dBBDu072L (antibody, name in Kabat numbering, V domains shown)
VH: B1 VH with V64P, A106H
VL: B1 VL
B36: dBBDu183H A98R/dBBDu072L (antibody, name in Kabat numbering, V domains shown)
VH: B1 VH with V64P, A104R
VL: B1 VL
B37: dBBDu183H A98W/dBBDu072L (antibody, name in Kabat numbering, V domains shown)
VH: B1 VH with V64P, A104W
VL: B1 VL
B38: dBBDu183H A98N/dBBDu072L (antibody, name in Kabat numbering, V domains shown)
VH: B1 VH with V64P, A104N
VL: B1 VL
B39: dBBDu183H A100fW/dBBDu072L (antibody, name in Kabat numbering, V domains shown)
VH: B1 VH with V64P, A112W
VL: B1 VL
B40: dBBDu183H A98G/dBBDu072L (antibody, name in Kabat numbering, V domains shown)
VH: B1 VH with V64P, A104G
VL: B1 VL
B41: dBBDu183H A100W/dBBDu072L (antibody, name in Kabat numbering, V domains shown)
VH: B1 VH with V64P, A106W
VL: B1 VL
B42: dBBDu183H A100F/dBBDu072L (antibody, name in Kabat numbering, V domains shown)
VH: B1 VH with V64P, A106F
VL: B1 VL

Biological target: T1, Human CD3eg linker
Experiment: SPR, vs unmutated H183/L072
B1 was tested, and the “fold change of affinity” value was 1.8 fold. B2 was tested, and the “fold change of affinity” value was 1.5 fold. In the case of B3, the “fold change of affinity” value is reported as 0.5 fold. In the case of B4, the “fold change of affinity” value is reported as 4.7 fold. B5 was tested, and the “fold change of affinity” value was 5.9 fold. B6 was tested, and the “fold change of affinity” value was 0.8 fold. With B7 the “fold change of affinity” value was 0.5 fold. For B8, the “fold change of affinity” value was 0.4 fold. For B9, the “fold change of affinity” value was 1.1 fold. In the case of B10, the “fold change of affinity” value is reported as 1.4 fold. For B11, the “fold change of affinity” value was 1.2 fold. With B12 the “fold change of affinity” value was 0.4 fold. With B13 the “fold change of affinity” value was 1.2 fold. In the case of B14, the “fold change of affinity” value is reported as 0.7 fold. With B15 the “fold change of affinity” value was 1.4 fold. In the case of B16, the “fold change of affinity” value is reported as 12.1 fold. For B17, the “fold change of affinity” value was 1.7 fold. For B18, the “fold change of affinity” value was 1.6 fold. For B19, the “fold change of affinity” value was 0.9 fold. B20 was tested, and the “fold change of affinity” value was 0.3 fold. For B21, the “fold change of affinity” value was 2.1 fold. For B22, the “fold change of affinity” value was 1.2 fold. B23 was tested, and the “fold change of affinity” value was 25.1 fold. With B24 the “fold change of affinity” value was 0.8 fold. In the case of B25, the “fold change of affinity” value is reported as 4.6 fold. B26 was tested, and the “fold change of affinity” value was 1.7 fold. For B27, the “fold change of affinity” value was 1 fold. B28 was tested, and the “fold change of affinity” value was 1.3 fold. For B29, the “fold change of affinity” value was 0.5 fold. B30 was tested, and the “fold change of affinity” value was 2 fold. With B31 the “fold change of affinity” value was 1.1 fold. In the case of B32, the “fold change of affinity” value is reported as 1 fold. With B33 the “fold change of affinity” value was 1.9 fold. With B34 the “fold change of affinity” value was 1.6 fold. B35 was tested, and the “fold change of affinity” value was 1.2 fold. For B36, the “fold change of affinity” value was 2.7 fold. B37 was tested, and the “fold change of affinity” value was 7 fold. With B38 the “fold change of affinity” value was 1.5 fold. In the case of B39, the “fold change of affinity” value is reported as 0.7 fold. B40 was tested, and the “fold change of affinity” value was 1.4 fold. B41 was tested, and the “fold change of affinity” value was 1.9 fold. In the case of B42, the “fold change of affinity” value is reported as 1.4 fold.
